Results on 3 molecules are retold here after publication PMC5908291, “The JmjN domain as a dimerization interface and a targeted inhibitor of KDM4 demethylase activity” (Oncotarget, 2018).

First the molecules themselves.
B1: KDM4C with a C-terminal YN or YC tag (enzyme, human, UniProt Q9H3R0 1-1056, looked up)
chain: MEVAEVESPLNPSCKIMTFRPSMEEFREFNKYLAYMESKGAHRAGLAKVIPPKEWKPRQCYDDIDNLLIPAPIQQMVTGQSGLFTQYNIQKKAMTVKEFRQLANSGKYCTPRYLDYEDLERKYWKNLTFVAPIYGADINGSIYDEGVDEWNIARLNTVLDVVEEECGISIEGVNTPYLYFGMWKTTFAWHTEDMDLYSINYLHFGEPKSWYAIPPEHGKRLERLAQGFFPSSSQGCDAFLRHKMTLISPSVLKKYGIPFDKITQEAGEFMITFPYGYHAGFNHGFNCAESTNFATVRWIDYGKVAKLCTCRKDMVKISMDIFVRKFQPDRYQLWKQGKDIYTIDHTKPTPASTPEVKAWLQRRRKVRKASRSFQCARSTSKRPKADEEEEVSDEVDGAEVPNPDSVTDDLKVSEKSEAAVKLRNTEASSEEESSASRMQVEQNLSDHIKLSGNSCLSTSVTEDIKTEDDKAYAYRSVPSISSEADDSIPLSSGYEKPEKSDPSELSWPKSPESCSSVAESNGVLTEGEESDVESHGNGLEPGEIPAVPSGERNSFKVPSIAEGENKTSKSWRHPLSRPPARSPMTLVKQQAPSDEELPEVLSIEEEVEETESWAKPLIHLWQTKSPNFAAEQEYNATVARMKPHCAICTLLMPYHKPDSSNEENDARWETKLDEVVTSEGKTKPLIPEMCFIYSEENIEYSPPNAFLEEDGTSLLISCAKCCVRVHASCYGIPSHEICDGWLCARCKRNAWTAECCLCNLRGGALKQTKNNKWAHVMCAVAVPEVRFTNVPERTQIDVGRIPLQRLKLKCIFCRHRVKRVSGACIQCSYGRCPASFHVTCAHAAGVLMEPDDWPYVVNITCFRHKVNPNVKSKACEKVISVGQTVITKHRNTRYYSCRVMAVTSQTFYEVMFDDGSFSRDTFPEDIVSRDCLKLGPPAEGEVVQVKWPDGKLYGAKYFGSNIAHMYQVEFEDGSQIAMKREDIYTLDEELPKRVKARFSTASDMRFEDTFYGADIIQGERKRQRVLSSRFKNEYVADPVYRTFLKSSFQKKCQKRQ
notes: Lysine demethylase KDM4C (GASC1), human, ORF amplified from pCMV-HA-GASC1; 1056 aa as printed; BiFC pair: one molecule stands for the YN and the YC conjugate; also called KDM4C-YN; KDM4C-YC; source: HEK293, transiently transfected, in cells; not shown: YN (Venus YFP residues 1-172) on one copy or YC (Venus YFP residues 155-238) on the other, C-terminal, kept
B2: KDM4A with a C-terminal YN or YC tag (enzyme, human, UniProt O75164 1-1064, looked up)
chain: MASESETLNPSARIMTFYPTMEEFRNFSRYIAYIESQGAHRAGLAKVVPPKEWKPRASYDDIDDLVIPAPIQQLVTGQSGLFTQYNIQKKAMTVREFRKIANSDKYCTPRYSEFEELERKYWKNLTFNPPIYGADVNGTLYEKHVDEWNIGRLRTILDLVEKESGITIEGVNTPYLYFGMWKTSFAWHTEDMDLYSINYLHFGEPKSWYSVPPEHGKRLERLAKGFFPGSAQSCEAFLRHKMTLISPLMLKKYGIPFDKVTQEAGEFMITFPYGYHAGFNHGFNCAESTNFATRRWIEYGKQAVLCSCRKDMVKISMDVFVRKFQPERYKLWKAGKDNTVIDHTLPTPEAAEFLKESELPPRAGNEEECPEEDMEGVEDGEEGDLKTSLAKHRIGTKRHRVCLEIPQEVSQSELFPKEDLSSEQYEMTECPAALAPVRPTHSSVRQVEDGLTFPDYSDSTEVKFEELKNVKLEEEDEEEEQAAAALDLSVNPASVGGRLVFSGSKKKSSSSLGSGSSRDSISSDSETSEPLSCRAQGQTGVLTVHSYAKGDGRVTVGEPCTRKKGSAARSFSERELAEVADEYMFSLEENKKSKGRRQPLSKLPRHHPLVLQECVSDDETSEQLTPEEEAEETEAWAKPLSQLWQNRPPNFEAEKEFNETMAQQAPHCAVCMIFQTYHQVEFGGFNQNCGNASDLAPQKQRTKPLIPEMCFTSTGCSTDINLSTPYLEEDGTSILVSCKKCSVRVHASCYGVPPAKASEDWMCSRCSANALEEDCCLCSLRGGALQRANDDRWVHVSCAVAILEARFVNIAERSPVDVSKIPLPRFKLKCIFCKKRRKRTAGCCVQCSHGRCPTAFHVSCAQAAGVMMQPDDWPFVVFITCFRHKIPNLERAKGALQSITAGQKVISKHKNGRFYQCEVVRLTTETFYEVNFDDGSFSDNLYPEDIVSQDCLQFGPPAEGEVVQVRWTDGQVYGAKFVASHPIQMYQVEFEDGSQLVVKRDDVYTLDEELPKRVKSRLSVASDMRFNEIFTEKEVKQEKKRQRVINSRYREDYIEPALYRAIME
notes: Lysine demethylase KDM4A (JmjD2A), human, ORF amplified from pCMV-HA-JmjD2A; BiFC pair: one molecule stands for the YN and the YC conjugate; also called KDM4A-YN; KDM4A-YC; source: HEK293, transiently transfected, in cells; not shown: YN (Venus YFP residues 1-172) on one copy or YC (Venus YFP residues 155-238) on the other, C-terminal, kept

Experiment in all cases: split reporter (BiFC, NanoBiT); BiFC (Venus YN + YC), IF microscopy of fixed HEK293 cells with quantitative image analysis (Imaris): mean reconstituted YFP fluorescence in each anti-YFP positive cell, >100 cells for each transfection
Data set [1] addresses KDM4B with a C-terminal YN or YC tag (human) (UniProt O94953).
In data set [2] the target is B1.
Data set [3] concerns the molecule itself.

KDM4B with a C-terminal YN or YC tag (human), sequence (O94953 whole entry): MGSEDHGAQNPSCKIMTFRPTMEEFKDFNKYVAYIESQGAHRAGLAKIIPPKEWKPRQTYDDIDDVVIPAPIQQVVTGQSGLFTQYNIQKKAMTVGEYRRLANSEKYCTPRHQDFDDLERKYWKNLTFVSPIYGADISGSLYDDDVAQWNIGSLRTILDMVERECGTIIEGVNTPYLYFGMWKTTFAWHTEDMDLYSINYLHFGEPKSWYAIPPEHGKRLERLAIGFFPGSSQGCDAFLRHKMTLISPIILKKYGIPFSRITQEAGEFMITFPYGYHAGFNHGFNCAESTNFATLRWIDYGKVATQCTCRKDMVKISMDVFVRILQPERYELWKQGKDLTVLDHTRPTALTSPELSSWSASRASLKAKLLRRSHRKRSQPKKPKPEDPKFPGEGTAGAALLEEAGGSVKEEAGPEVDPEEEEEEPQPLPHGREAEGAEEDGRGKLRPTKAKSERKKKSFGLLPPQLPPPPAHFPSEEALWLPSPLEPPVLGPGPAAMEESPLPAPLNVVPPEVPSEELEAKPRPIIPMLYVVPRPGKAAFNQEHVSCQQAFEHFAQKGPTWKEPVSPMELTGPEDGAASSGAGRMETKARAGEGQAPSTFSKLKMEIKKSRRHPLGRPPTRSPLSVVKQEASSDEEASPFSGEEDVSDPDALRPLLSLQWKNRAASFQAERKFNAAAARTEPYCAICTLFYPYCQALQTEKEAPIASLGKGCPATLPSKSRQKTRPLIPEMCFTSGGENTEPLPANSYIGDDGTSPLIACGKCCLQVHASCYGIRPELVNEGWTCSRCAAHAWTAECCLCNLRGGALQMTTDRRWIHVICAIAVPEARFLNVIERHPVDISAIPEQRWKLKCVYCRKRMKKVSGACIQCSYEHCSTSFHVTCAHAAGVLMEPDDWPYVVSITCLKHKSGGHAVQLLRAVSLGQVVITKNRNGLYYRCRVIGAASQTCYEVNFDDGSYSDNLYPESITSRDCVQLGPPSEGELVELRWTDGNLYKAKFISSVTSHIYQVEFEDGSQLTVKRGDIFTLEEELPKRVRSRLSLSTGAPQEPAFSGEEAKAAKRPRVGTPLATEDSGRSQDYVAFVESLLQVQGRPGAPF

Consider “KDM4B with a C-terminal YN or YC tag (from UniProt O94953 1-1096) (enzyme)”, for which, in data set [1], the YFP fluorescence (BiFC), Average (arbitrary units) was 129; the YFP fluorescence (BiFC), Max (arbitrary units) was 320; the YFP fluorescence (BiFC), Median (arbitrary units) stood at 120; the YFP fluorescence (BiFC), Min (arbitrary units) is 48. For the same molecule, in data set [2], the YFP fluorescence (BiFC), Average (arbitrary units) is 170; the YFP fluorescence (BiFC), Max (arbitrary units) is 356; the YFP fluorescence (BiFC), Median (arbitrary units) came to 146; the YFP fluorescence (BiFC), Min (arbitrary units) amounted to 50.
Take B1: in data set [3], the “YFP fluorescence (BiFC), Average” value is 741 arbitrary units; the “YFP fluorescence (BiFC), Max” value was found to be 2890 arbitrary units; the “YFP fluorescence (BiFC), Median” value is 628 arbitrary units; the “YFP fluorescence (BiFC), Min” value turned out to be 204 arbitrary units.
Consider B2, for which, in data set [1], the YFP fluorescence (BiFC), Average (arbitrary units) came to 110; the YFP fluorescence (BiFC), Max (arbitrary units) turned out to be 309; the YFP fluorescence (BiFC), Median (arbitrary units) stood at 104; the YFP fluorescence (BiFC), Min (arbitrary units) came out at 19. Also, in data set [3], the “YFP fluorescence (BiFC), Average” value was found to be 943 arbitrary units; the “YFP fluorescence (BiFC), Max” value is 3140 arbitrary units; the “YFP fluorescence (BiFC), Median” value was 726 arbitrary units; the “YFP fluorescence (BiFC), Min” value was determined as 259 arbitrary units. In data set [2] (partners not purified), the “YFP fluorescence (BiFC), Average” value was 845 arbitrary units; the “YFP fluorescence (BiFC), Max” value is 3080 arbitrary units; the “YFP fluorescence (BiFC), Median” value was 717 arbitrary units; the “YFP fluorescence (BiFC), Min” value came to 320 arbitrary units.
